Results: patent publication US7608586B2, “Soluble low-density lipoprotein receptor related protein binds directly to Alzheimer's amyloid-beta peptide” (The University of Rochester, priority 2003, dated 2009)
Entries after “also recorded” stand apart in the source; their conditions may differ.

Assays:
[1] = target: T1, LRP-1 on isolated brain capillaries (Mus musculus, UniProt Q91ZX7); assay: Brain capillary uptake (in vitro clearance of 125I-Aβ by isolated brain capillaries); type: cell-based; settings: for lower affinity (Ki) for LRP-mediated clearance on brain capillaries than Aβ1-40: 125I-Aβ1-40 as test-ligand, unlabeled peptide 40 nM
T1 construct: from tissue; host or cells: isolated brain capillaries of wild-type and RAP null mice

LRP-1 cluster IV = target: T2, LRP-1 cluster IV (Homo sapiens, UniProt Q07954); assay: Surface plasmon resonance binding of Aβ peptides to immobilized LRP-1 cluster IV; settings: RAP 500 nM
T2 construct: cluster IV (i.e., His3313 to Leu3759 as numbered in Herz et al., 1988); made in house; host or cells: stably transfected baby hamster kidney (BHK) cells
Experimental: (§1) RAP was used at 500 nM. Ligand solution was replaced with buffer to initiate dissociation. […] Apparent affinity constants Kd(app) were inferred from the ratio koff(app)/kon(app). Data are based on three to five measurements using six to nine different concentrations for each measurement. Data are presented as the mean±SEM. Analysis was performed using BIACORE X biosensor system (Uppsala, Sweden) and BIA evaluation 3.0 software (Biocore, Sweden).

LRP-1 cluster II = target: T3, LRP-1 cluster II (Homo sapiens, UniProt Q07954); assay: Surface plasmon resonance binding of Aβ peptides to immobilized LRP-1 cluster II; settings: RAP 500 nM
T3 construct: cluster II (i.e., Arg786 to Leu1165 as numbered in Herz et al., 1988); made in house; host or cells: stably transfected baby hamster kidney (BHK) cells
T3 sequence (Q07954 786-1165): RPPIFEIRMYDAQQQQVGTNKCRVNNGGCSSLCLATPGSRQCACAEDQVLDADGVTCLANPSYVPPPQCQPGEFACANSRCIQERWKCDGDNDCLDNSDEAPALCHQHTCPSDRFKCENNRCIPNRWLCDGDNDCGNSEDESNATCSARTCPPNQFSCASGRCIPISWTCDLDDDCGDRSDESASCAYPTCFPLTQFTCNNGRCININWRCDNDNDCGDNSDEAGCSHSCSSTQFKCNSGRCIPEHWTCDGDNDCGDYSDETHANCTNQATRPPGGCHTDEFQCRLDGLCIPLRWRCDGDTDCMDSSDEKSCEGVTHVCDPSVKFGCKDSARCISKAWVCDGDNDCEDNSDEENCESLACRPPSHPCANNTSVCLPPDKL
Experimental: as §1

[2] = target: T4, LRP-1 at the blood-brain barrier (Mus musculus, UniProt Q91ZX7); assay: Brain clearance studies: efflux of 125I-Aβ from brain ISF across the blood-brain barrier; type: in vivo; settings: RAP 1 μM, αLRP-1 60 μg/ml, NI IgG 60 μg/ml, 30 min
T4 construct: from tissue; host or cells: living mouse brain (C57BL/6, RAP null and littermate controls), microinjection into brain ISF
T4 sequence (Q91ZX7 20-4545): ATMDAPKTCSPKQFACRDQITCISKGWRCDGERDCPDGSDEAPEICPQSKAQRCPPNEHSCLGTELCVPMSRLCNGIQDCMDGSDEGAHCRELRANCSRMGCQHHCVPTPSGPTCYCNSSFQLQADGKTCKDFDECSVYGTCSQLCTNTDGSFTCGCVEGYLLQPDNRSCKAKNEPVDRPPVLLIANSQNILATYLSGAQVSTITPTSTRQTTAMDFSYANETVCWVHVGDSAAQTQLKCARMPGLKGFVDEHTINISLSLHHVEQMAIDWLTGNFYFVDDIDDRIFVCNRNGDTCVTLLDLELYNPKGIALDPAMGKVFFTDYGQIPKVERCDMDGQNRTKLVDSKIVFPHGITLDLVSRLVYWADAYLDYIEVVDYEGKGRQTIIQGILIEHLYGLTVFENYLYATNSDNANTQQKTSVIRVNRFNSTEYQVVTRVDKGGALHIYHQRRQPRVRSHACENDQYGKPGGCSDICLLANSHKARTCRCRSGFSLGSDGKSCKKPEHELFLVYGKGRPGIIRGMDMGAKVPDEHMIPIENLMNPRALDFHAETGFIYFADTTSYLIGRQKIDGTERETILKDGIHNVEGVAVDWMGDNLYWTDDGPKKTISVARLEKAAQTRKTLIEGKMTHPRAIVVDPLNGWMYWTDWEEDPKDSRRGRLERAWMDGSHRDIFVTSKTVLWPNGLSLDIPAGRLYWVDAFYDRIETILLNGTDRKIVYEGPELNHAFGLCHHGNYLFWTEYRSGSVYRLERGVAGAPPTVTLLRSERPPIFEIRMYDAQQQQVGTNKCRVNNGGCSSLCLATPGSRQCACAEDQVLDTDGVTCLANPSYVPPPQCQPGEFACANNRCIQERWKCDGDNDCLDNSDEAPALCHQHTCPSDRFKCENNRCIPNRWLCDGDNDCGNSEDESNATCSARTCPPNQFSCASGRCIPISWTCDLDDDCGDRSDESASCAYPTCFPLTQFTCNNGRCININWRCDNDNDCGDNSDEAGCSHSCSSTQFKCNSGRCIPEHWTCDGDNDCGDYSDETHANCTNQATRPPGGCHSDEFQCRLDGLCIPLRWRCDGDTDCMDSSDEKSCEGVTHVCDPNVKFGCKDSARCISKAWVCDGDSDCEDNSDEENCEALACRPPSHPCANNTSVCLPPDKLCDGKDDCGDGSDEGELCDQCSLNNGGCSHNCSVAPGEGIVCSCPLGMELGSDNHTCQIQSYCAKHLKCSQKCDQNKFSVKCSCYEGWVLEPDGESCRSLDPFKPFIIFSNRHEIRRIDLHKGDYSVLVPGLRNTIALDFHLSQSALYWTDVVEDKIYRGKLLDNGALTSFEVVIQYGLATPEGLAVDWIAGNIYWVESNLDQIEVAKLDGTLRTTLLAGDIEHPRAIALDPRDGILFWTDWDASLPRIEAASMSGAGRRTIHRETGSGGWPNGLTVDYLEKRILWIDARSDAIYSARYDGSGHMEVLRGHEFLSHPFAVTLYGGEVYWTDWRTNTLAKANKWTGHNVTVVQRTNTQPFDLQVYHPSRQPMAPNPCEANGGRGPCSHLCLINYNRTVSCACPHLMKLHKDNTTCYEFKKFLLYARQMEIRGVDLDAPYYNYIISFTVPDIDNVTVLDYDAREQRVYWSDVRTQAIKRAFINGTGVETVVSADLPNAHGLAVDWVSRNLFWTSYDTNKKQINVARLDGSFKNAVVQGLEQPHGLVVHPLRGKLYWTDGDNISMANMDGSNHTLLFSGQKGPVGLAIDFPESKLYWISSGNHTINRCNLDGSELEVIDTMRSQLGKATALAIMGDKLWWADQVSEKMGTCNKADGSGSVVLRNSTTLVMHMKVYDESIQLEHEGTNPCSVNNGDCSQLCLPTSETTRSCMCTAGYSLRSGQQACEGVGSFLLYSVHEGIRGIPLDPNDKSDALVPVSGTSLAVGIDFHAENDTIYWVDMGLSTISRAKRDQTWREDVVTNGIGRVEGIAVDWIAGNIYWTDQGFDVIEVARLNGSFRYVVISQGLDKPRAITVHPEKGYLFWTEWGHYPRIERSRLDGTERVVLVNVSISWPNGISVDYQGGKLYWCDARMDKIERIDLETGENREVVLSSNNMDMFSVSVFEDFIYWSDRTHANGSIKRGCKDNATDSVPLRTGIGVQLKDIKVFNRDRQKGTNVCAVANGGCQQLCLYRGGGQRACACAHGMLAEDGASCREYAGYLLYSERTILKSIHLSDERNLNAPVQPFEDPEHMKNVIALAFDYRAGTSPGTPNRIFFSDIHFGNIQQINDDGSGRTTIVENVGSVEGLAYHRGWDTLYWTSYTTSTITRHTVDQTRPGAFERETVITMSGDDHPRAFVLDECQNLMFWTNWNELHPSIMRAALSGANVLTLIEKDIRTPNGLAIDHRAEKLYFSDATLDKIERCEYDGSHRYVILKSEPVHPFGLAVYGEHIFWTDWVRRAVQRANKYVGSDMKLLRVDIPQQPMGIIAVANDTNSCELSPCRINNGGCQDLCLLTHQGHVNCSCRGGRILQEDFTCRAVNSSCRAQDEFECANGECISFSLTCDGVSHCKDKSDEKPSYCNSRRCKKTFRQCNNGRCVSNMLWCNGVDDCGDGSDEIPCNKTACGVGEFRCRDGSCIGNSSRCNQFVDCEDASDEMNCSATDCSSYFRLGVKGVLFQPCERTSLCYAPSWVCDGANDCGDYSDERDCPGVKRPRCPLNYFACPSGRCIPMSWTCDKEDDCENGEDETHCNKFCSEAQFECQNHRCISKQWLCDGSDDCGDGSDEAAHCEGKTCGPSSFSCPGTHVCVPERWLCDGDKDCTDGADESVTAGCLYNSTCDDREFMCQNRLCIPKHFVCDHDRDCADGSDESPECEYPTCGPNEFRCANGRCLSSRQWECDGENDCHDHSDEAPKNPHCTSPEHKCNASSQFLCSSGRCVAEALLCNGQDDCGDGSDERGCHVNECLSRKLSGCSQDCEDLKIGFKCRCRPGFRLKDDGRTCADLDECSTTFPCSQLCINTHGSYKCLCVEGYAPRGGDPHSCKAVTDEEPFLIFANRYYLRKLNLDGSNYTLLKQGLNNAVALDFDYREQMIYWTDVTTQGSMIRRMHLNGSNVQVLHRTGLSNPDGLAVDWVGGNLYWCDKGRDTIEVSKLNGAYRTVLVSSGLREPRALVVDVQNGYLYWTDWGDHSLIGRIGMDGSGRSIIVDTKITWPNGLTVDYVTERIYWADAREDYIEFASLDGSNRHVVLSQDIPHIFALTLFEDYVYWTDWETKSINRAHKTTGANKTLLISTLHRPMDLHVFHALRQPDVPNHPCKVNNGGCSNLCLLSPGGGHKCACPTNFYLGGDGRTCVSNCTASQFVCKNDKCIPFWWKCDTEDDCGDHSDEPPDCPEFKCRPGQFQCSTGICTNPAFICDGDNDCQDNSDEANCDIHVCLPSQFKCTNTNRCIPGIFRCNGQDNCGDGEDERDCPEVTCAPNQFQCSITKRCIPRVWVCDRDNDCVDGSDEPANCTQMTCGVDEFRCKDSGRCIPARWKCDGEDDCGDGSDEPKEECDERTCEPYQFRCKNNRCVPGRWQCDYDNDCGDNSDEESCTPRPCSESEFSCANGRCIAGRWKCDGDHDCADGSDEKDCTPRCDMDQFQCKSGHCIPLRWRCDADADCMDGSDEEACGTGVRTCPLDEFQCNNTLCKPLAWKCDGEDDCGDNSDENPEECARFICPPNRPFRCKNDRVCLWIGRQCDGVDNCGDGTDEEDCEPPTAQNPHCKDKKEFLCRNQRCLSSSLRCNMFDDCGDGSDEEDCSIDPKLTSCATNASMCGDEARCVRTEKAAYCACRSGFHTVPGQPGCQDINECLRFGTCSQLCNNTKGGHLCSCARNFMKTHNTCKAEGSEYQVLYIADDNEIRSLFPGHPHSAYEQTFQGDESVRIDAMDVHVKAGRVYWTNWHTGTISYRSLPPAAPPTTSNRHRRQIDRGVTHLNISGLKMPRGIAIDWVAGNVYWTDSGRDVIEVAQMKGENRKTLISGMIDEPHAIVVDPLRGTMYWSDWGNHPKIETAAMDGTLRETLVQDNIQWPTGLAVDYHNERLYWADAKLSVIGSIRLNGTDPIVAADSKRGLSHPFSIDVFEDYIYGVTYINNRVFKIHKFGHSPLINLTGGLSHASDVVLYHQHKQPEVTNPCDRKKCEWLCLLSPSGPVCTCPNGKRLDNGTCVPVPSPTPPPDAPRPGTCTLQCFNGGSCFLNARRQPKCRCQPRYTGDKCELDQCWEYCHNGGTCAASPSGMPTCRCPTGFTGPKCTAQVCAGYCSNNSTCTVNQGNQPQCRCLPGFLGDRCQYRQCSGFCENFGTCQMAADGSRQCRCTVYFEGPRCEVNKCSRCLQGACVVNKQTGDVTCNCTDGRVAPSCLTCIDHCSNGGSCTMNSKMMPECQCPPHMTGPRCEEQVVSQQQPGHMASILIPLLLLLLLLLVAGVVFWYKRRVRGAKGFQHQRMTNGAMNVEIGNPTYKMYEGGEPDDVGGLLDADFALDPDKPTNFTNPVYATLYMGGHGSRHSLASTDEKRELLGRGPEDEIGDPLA
Experimental: All studies were performed according to National Institutes of Health guidelines using an approved institutional protocol. […] Briefly a stainless steel guide cannula was implanted stereotaxically into the right caudate-putamen of anesthetized mice (0.5 mg/kg ketamine and 5 mg/kg xylazine I.P.). Coordinates for tip of the cannula were 0.9 mm anterior and 1.9 mm lateral to the bregma and 2.9 mm below the surface of the brain. Animals were allowed to recover after surgery prior to radiotracer studies. […] When the effects of the different unlabeled molecular reagents were tested, they were injected simultaneously with radiolabled ligands. […] Brain and blood were sampled 30 min after tracers injection and prepared for radioactivity analysis by TCA, HPLC and SDS-PAGE/immunoprecipitation analysis to determine the molecular forms of test-tracers. […] For SDS-PAGE analysis, TCA precipitated samples were resuspended in 1% SDS, vortexed and incubated at 55° C. for 5 min, then neutralized, boiled for 3 min, homogenized, and analyzed by electrophoresis in 10% Tris-Tricine gels followed by fluorography.
The percentage of Aβ cleared through the BBB was calculated as [(1−Nb(Aβ)/Ni(Aβ))−(1−Nb(inulin)/Ni(inulin))]×100, using a standard time of 30 min (3). […]

T1 sequence (Q91ZX7 20-4545): as above
T2 sequence (Q07954 3313-3759): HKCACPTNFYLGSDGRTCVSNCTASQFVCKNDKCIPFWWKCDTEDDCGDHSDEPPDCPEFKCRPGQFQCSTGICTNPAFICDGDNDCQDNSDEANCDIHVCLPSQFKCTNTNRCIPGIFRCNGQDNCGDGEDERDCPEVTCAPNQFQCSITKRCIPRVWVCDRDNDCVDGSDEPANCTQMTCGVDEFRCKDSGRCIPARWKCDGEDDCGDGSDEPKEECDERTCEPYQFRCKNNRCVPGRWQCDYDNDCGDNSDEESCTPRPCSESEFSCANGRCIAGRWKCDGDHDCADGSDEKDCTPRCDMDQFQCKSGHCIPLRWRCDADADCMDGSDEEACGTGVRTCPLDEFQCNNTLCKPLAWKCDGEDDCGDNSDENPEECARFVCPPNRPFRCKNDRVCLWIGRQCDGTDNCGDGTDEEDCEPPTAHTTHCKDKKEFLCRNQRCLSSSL

Substance	lower affinity (Ki) for LRP-mediated clearance on brain capillaries than Aβ1-40 [1]	Binding of Aβ peptides to LRP-1 cluster IV in the presence of RAP (LRP-1 cluster IV)	effect on Aβ1-40 brain capillary uptake ([1]; Aβ1-40 at 120 nM, RAP 1 μM, αLRP-1 60 μg/ml, NI IgG 60 μg/ml)	effect on 125I-Aβ1-40 uptake before (total) and after mild acid wash ([1]; RAP 500 nM, 37° C.)	Binding of Aβ peptides to LRP-1 cluster II in the presence of RAP (LRP-1 cluster II)	effect on Aβ elimination from brain [2]
Dutch Aβ1-40: Dutch (E22Q) mutant Aβ1-40 peptide	6 fold					
Dutch Aβ1-42: Dutch (E22Q) mutant Aβ1-42 peptide	18 fold					
RAP: human recombinant receptor-associated protein, an LRP-1 antagonist		abolished	completely inhibited; also recorded: abolished	blocked	abolished	almost completely abolished
